Holding throughout (assay type): physicochemical
The nature of series [1]: Residual solvent content of trypsin after lyophilization (Example 1). Conditions: primary and secondary drying cycles, 62 hours. The method, then:
(§1) When the solvent is water, the residual solvent content referenced herein refer to levels determined by the FDA approved, modified Karl Fischer method (Meyer and Boyd, Analytical Chem., 31:215-219, 1959; May, et al., J. Biol. Standardization, 10:249-259, 1982; Centers for Biologics Evaluation and Research, FDA, Docket No. 89D-0140, 83-93; 1990) or by near infrared spectroscopy.
1 ml aliquots of trypsin alone or with 100 mM sodium ascorbate were placed in 3 ml vials. Samples were prepared in triplicate and subjected to lyophilization (primary and secondary drying cycles; 62 hours).

Series [2] is described as follows: Residual solvent content of trypsin after lyophilization, sampled after primary drying and at end of cycle (Example 2). As for the experimental part: as §1
1 ml aliquots of trypsin alone or with 100 mM sodium ascorbate were placed in 3 ml vials. Samples were prepared in triplicate and subjected to lyophilization. Samples were removed (using sample thief) at the end of primary drying (22 hours after start of the cycle), the cycle continued to completion (62 hours after start of cycle) at this time vials were sealed under vacuum and removed from the freeze dryer.

Series [3] can be described thus: Residual solvent content of trypsin frozen overnight at -70 C and lyophilized (Example 3). Conditions: frozen overnight at -70 C before lyophilization. As for the experimental part:
as §1
1 ml aliquots of trypsin alone or with 100 mM sodium ascorbate were placed in 3 ml vials and frozen overnight at −70° C. Samples were prepared in quadruplicate and subjected to lyophilization. Samples were removed (using sample thief) at the end of primary drying (22 hours after start of the cycle), the cycle continued to completion (62 hours after start of cycle) at this time vials were sealed under vacuum and removed from the freeze dryer.

On to trypsin, for which the residual solvent content entry was “about 1.8 % water” in series [1] (absence of sodium ascorbate); “about 0.7 % water” in series [1] (presence of 100 mM sodium ascorbate); “about 5.8 % water” in series [2] (absence of sodium ascorbate, following a primary drying cycle alone (22 hours)); “about 5.4 % water” in series [2] (absence of sodium ascorbate, following primary and secondary drying cycle (62 hours)); “about 2.8 % water” in series [2] (presence of 100 mM sodium ascorbate, following a primary drying cycle alone (22 hours)); “about 1.1 % water” in series [2] (presence of 100 mM sodium ascorbate, following primary and secondary drying cycle (62 hours)). Moreover, the residual solvent content result in series [3] (absence of ascorbate) is on record as “about 3.9 % water”; in series [3] (presence of ascorbate (100 mM sodium ascorbate)), 0.7 % water.

The values are drawn from patent US20030068416A1, “Method of lyophylization to reduce solvent content and enhance product recovery” (priority 2001, published 2003).
